Drawing on PMC4914982, this text covers stoichiometry N for six substances.

In general, stoichiometry N refers to the number of molecules, sites or subunits per partner or assembly.

Some targets named below: sfGFP-N149Y/Q204H/I167T; sfGFP-N149Y/Q204H/I188V; sfGFP-N149Y; sfGFP-N149Y/Q204H; sfGFP-Q204H.
Holding throughout (assay): SEC + native gel or EMSA; SEC: Superdex S200 10/300 GL, PBS pH 7.4, approximately 500 ul of 1 mg/ml protein injected, UV 280 nm; semi-native PAGE: 12% SDS-PAGE, Laemmli buffer with 0.2% SDS and 12.5 mM EDTA, no beta-mercaptoethanol, samples not heated; monomer to dimer
(Mobility shift assays separate free from complexed probe on a gel.)

Experiment [1] concerns the target sfGFP-N149Y/Q204H/I167T/I188V.

For sfGFP-N149Y/Q204H/I167T, the stoichiometry N with sfGFP-N149Y/Q204H/I167T came out at 2.

As to sfGFP-N149Y/Q204H/I188V, in the experiment with sfGFP-N149Y/Q204H/I188V, the stoichiometry N worked out at 2.

Regarding sfGFP-N149Y, the stoichiometry N in the experiment with sfGFP-N149Y is 2.

On to sfGFP-N149Y/Q204H/I167T/I188V, for which the stoichiometry N in experiment [1] amounted to 2.

As to sfGFP-N149Y/Q204H, the stoichiometry N with sfGFP-N149Y/Q204H worked out at 2.

As to sfGFP-Q204H, the stoichiometry N with sfGFP-Q204H was determined as 2.
